Measurements taken from patent US20150140002A1, “USE OF A PCSK9 INHIBITOR TO TREAT […]” (Sanofi, priority 2013, published 2015).
Where “and” joins values, the source holds several entries; their conditions need not be identical. Equal entries are not always repeated. Where two headings read alike, the source gives them in different places.

How the values were obtained:
[1] = test system: patients with hypercholesterolemia at moderate cardiovascular (CV) risk; conditions: in vivo
Description: (§1) The clinical laboratory data consisted of urinalysis and blood analysis, hematology (RBC count, red blood cell distribution width (RDW), reticulocyte count, hemoglobin, hematocrit, platelets, WBC count with differential blood count), standard chemistry (glucose, sodium, potassium, chloride, bicarbonate, calcium, phosphorous, urea nitrogen, creatinine, uric acid, total protein, LDH, albumin, γ Glutamyl Transferase [γGT]), Hepatitis C antibody, liver panel (ALT, AST, ALP, and total bilirubin), and CPK.
(§2) Safety endpoints—Vital signs measurement: Vital signs included: HR, systolic and diastolic BP in sitting position.
(§3) The safety analysis included all randomized and treated patients. Safety data were analyzed by descriptive statistics.

[2] = test system: anti-mAb316P antibodies; experiment: Example 2: anti-mAb316P antibody (ADA) bridging immunoassay and neutralizing antibody assay; format: in vivo, human
Procedure: Other endpoints Anti-MAb316P Antibody Assessments: Anti-mAb316P antibodies included the antibody status (positive/negative) and antibody titers.
Sampling time: Serum samples for anti-mAb316P antibody determination were drawn periodically throughout the study. The first scheduled sample at randomization visit was obtained before IMP injection (predose).
Anti-mAb316P antibody samples were analyzed using a validated non-quantitative, titer-based bridging immunoassay. It involved an initial screen, a confirmation assay based on drug specificity, and a measurement of the titer of anti-MAb316P antibodies in the sample. The lower limit of detection was approximately 1.5 ng/mL.
Samples that were positive in the ADA assay were assessed for neutralizing antibodies using a validated, non-quantitative, competitive ligand binding assay. The lower limit of detection based on a monoclonal positive control neutralizing antibody is 390 ng/mL.

[3] = test system: patients with primary hypercholesterolemia (heFH and non-FH) who are intolerant to statins; conditions: in vivo
[4] = test system: patients with hypercholesterolemia at moderate cardiovascular (CV) risk; experiment: Example 2: safety (TEAEs, laboratory parameters, vital signs); conditions: for Patients with any TEAE / Patients with any TEAE leading to death / Patients with any TEAE leading to treatment discontinuation / Patients with any treatment emergent SAE: Safety Population; for General disorders and administration site conditions / Injection site reaction / Muscle disorders / Musculoskeletal and connective tissue disorders / Musculoskeletal and connective tissue disorders NEC / Musculoskeletal pain / Myalgia / muscle spasms: TEAEs of interest; for Muscle-related AEs: discussion; for injection related AEs: disposable autoinjector
Description: as §1, §2, §3

[5] = Week 12, individual patient 6 who reported high blood glucose
[6] = Week 24, individual patients (arbitrary numbers 1-5) who reported high blood glucose

With `O=C1[C@H](CC[C@H](O)c2ccc(F)cc2)[C@@H](c2ccc(O)cc2)N1c1ccc(F)cc1` [ezetimibe, reference compound] the Influenza ([1]; human) was 3 (5.9) n (%), the “patients with treatment emergent anti-drug antibodies” value ([2]; in vivo) was “not observed” and the “Cardiac disorders (SOC)” value ([3]; human) was 6 (4.8%) patients (%). For the same molecule, the “Ear and labyrinth disorders (SOC)” value ([3]; human) was 4 (3.2%) patients (%), the “General allergic TEAEs (MedDRA SMQ Hypersensitivity)” value ([3]; human) was 9 (7.3%) patients (%) and the “Investigations (SOC)” value ([3]; human) was 7 (5.6%) patients (%). For the same molecule, the “Psychiatric disorders (SOC)” value ([3]; human) was 5 (4.0%) patients (%), the “Skeletal muscle-related TEAEs (CMQ preferred term)” value ([3]; human) was 40 (32.3%) patients (%) and the TEAEs ([3]; human) was 100 (80.6%) patients (%). The “Treatment-emergent SAEs” value ([3]; human) was 10 (8.1%) patients (%), the “Treatment-emergent injection site reactions (ISRs)” value ([3]; human) was 6 (4.8%) patients (%) and the Treatment-emergent neurocognitive disorders ([3]; human) was 2 (1.6%) patients (%). The “Treatment-emergent neurologic AEs” value ([3]; human) was 4 (3.2%) patients (%), the “Treatment-emergent skeletal muscle-related events resulting in early treatment discontinuation” value ([3]; human) was 23 (18.5%) patients (%) and the back pain ([3]; human) was 5.6%. The “early termination due to musculoskeletal and connective tissues disorders SOC events” value ([3]; human) was 26 [21.0%] patients [%], the fatigue ([3]; human) was 3.2% and the headache ([3]; human) was 4.8%. The insomnia ([3]; human) was 2 (1.6%) reports (%), the muscle spasms ([3]; human) was 7.3% and the muscular weakness ([3]; human) was 1.6%. For the same molecule, the “non-cardiac chest pain (treatment-emergent SAE preferred term)” value ([3]; human) was 4 (3.2%) patients (%), the palpitations ([3]; human) was 2 (1.6%) reports (%) and the paraesthesia ([3]; human) was 0%. The “patients who prematurely discontinued study treatment due to a TEAE” value ([3]; human) was 31 (25.0%) patients (%), the “patients who prematurely terminated study treatment due to adverse events” value ([3]; human) was 31 (24.8%) patients (%) and the “rate of AEs” value ([3]; human) was 81%. The vertigo ([3]; human) was 2 (1.6%) reports (%), the “Alanine aminotransferase (ALT) ≧3× ULN” value ([4]; Laboratory parameters) was 0/51 and the “Alanine aminotransferase (ALT) ≧3× ULN (if baseline ALT <ULN) or ≧2× the baseline value (if baseline ALT ≧ULN)” value ([4]; Laboratory parameters) was 0/51. The “Albumin ≦25 g/L” value ([4]; Laboratory parameters) was 0/50, the “Aspartate aminotransferase >3× ULN” value ([4]; Laboratory parameters) was 0/51 and the “Glucose ≦70 mg/dL (3.9 mmol/L) and <LLN” value ([4]; Laboratory parameters) was 0/50. The “Patients with any TEAE” value [4] was 40 (78.4) n (%), the “Patients with any TEAE leading to death” value [4] was 0 n (%) and the “Patients with any TEAE leading to treatment discontinuation” value [4] was 4 (7.8) n (%). The “Patients with any treatment emergent SAE” value [4] was 1 (2.0) n (%), the Arthralgia ([4]; TEAE) was 2 (3.9) n (%) and the Diarrhea ([4]; TEAE) was 2 (3.9) n (%). For the same molecule, the Dizziness ([4]; TEAE) was 3 (5.9) n (%), the Headaches ([4]; TEAE) was 2 (3.9) n (%) and the Nasopharyngitis ([4]; TEAE) was 8 (15.7) n (%). The Nausea ([4]; TEAE) was 3 (5.9) n (%), the “Upper respiratory tract infection” value ([4]; TEAE) was 5 (9.8) n (%) and the Urinary tract infection ([4]; TEAE) was 3 (5.9) n (%). The back pain ([4]; TEAE) was 3 (5.9) n (%), the “General disorders and administration site conditions” value [4] was 5 (9.8) n (%) and the Injection site reaction [4] was 2 (3.9) n (%). The Muscle disorders [4] was 2 (3.9) n (%), the “Musculoskeletal and connective tissue disorders” value [4] was 11 (21.6) n (%) and the “Musculoskeletal and connective tissue disorders NEC” value [4] was 5 (9.8) n (%). The Musculoskeletal pain [4] was 1 (2.0) n (%), the Myalgia [4] was 1 (2.0) n (%) and the muscle spasms [4] was 1 (2.0) n (%). The “Muscle-related AEs” value [4] was 4%, the “injection related AEs” value [4] was under 4% and the “Muscle-related TEAEs” value ([4]; in vivo) was 2 (4%) patients (%). The “overall percentage of patients who experienced at least one TEAE” value ([4]; in vivo) was 78%, the “patients with abnormalities in vital signs (blood pressure, heart rate)” value ([4]; in vivo) was at most 2 patients and the “patients with blood glucose >126 mg/dL (7 mmol/L)” value ([4]; in vivo) was 1 patients. The “patients with elevated creatine kinase levels over 10 times the upper limit of normal” value ([4]; in vivo) was 1 patient and the TEAE class infection ([4]; mostly respiratory) was 39.2%.

“mAb316P: human anti-PCSK9 antibody; heavy chain SEQ ID NO:5, light chain SEQ ID NO:9; HCVR SEQ ID NO:1, LCVR SEQ ID NO:6” was tested, and the TEAE class infection [1] was 42.3%, the anti-drug antibody titers ([2]; all anti-drug antibody-positive patients) was at most 240 and the neutralizing anti-drug antibody ([2]; in vivo) was “no neutralizing anti-drug antibody”. For the same molecule, the “patients with treatment emergent anti-drug antibodies” value ([2]; in vivo) was 6 (12%) patients (%), the “Cardiac disorders (SOC)” value [3] was 10 (7.9%) patients (%) and the “Ear and labyrinth disorders (SOC)” value [3] was 8 (6.3%) patients (%). For the same molecule, the “General allergic TEAEs (MedDRA SMQ Hypersensitivity)” value [3] was 12 (9.5%) patients (%), the “Investigations (SOC)” value [3] was 9 (7.1%) patients (%) and the “Psychiatric disorders (SOC)” value [3] was 9 (7.1%) patients (%). For the same molecule, the “Skeletal muscle-related TEAEs (CMQ preferred term)” value [3] was 34 (27.0%) patients (%), the TEAEs [3] was 104 (82.5%) patients (%) and the “Treatment-emergent SAEs” value [3] was 12 (9.5%) patients (%). For the same molecule, the “Treatment-emergent injection site reactions (ISRs)” value [3] was 6 (4.8%) patients (%), the Treatment-emergent neurocognitive disorders [3] was 3 (2.4%) patients (%) and the “Treatment-emergent neurologic AEs” value [3] was 11 (8.7%) patients (%). The “Treatment-emergent skeletal muscle-related events resulting in early treatment discontinuation” value [3] was 19 (15.1%) patients (%), the back pain [3] was 4.0% and the “early termination due to musculoskeletal and connective tissues disorders SOC events” value [3] was 20 [15.9%] patients [%]. The fatigue [3] was 4.8%, the headache [3] was 4.8% and the insomnia [3] was 5 (4.0%) reports (%). The muscle spasms [3] was 4.0%, the muscular weakness [3] was 0.8% and the palpitations [3] was 4 (3.2%) reports (%). For the same molecule, the paraesthesia [3] was 3.2%, the “patients who prematurely discontinued study treatment due to a TEAE” value [3] was 23 (18.3%) patients (%) and the “patients who prematurely terminated study treatment due to adverse events” value [3] was 23 (18.3%) patients (%). The “rate of AEs” value [3] was 82.5%, the vertigo [3] was 6 (4.8%) reports (%) and the safety and tolerability ([3]; sc) was “generally safe and well tolerated”. The “Albumin ≦25 g/L” value ([4]; Laboratory parameters) was 0/51, the “Aspartate aminotransferase >3× ULN” value ([4]; Laboratory parameters) was 0/52 and the “Creatine kinase >3× ULN” value ([4]; Laboratory parameters) was 0/51. The “Creatine kinase >10× ULN” value ([4]; Laboratory parameters) was 0/51, the “Glucose ≦70 mg/dL (3.9 mmol/L) and <LLN” value ([4]; Laboratory parameters) was 0/52 and the “Patients with any TEAE” value [4] was 36 (69.2) n (%). The “Patients with any TEAE leading to death” value [4] was 0 n (%), the “Patients with any TEAE leading to treatment discontinuation” value [4] was 5 (9.6) n (%) and the “Patients with any treatment emergent SAE” value [4] was 1 (1.9) n (%). The Arthralgia ([4]; TEAE) was 3 (5.8) n (%), the Diarrhea ([4]; TEAE) was 6 (11.5) n (%) and the Dizziness ([4]; TEAE) was 1 (1.9) n (%). The Headaches ([4]; TEAE) was 3 (5.8) n (%), the Influenza ([4]; TEAE) was 6 (11.5) n (%) and the Nasopharyngitis ([4]; TEAE) was 12 (23.1) n (%). The Nausea ([4]; TEAE) was 3 (5.8) n (%), the “Upper respiratory tract infection” value ([4]; TEAE) was 2 (3.8) n (%) and the Urinary tract infection ([4]; TEAE) was 0 n (%). The back pain ([4]; TEAE) was 1 (1.9) n (%), the “General disorders and administration site conditions” value [4] was 5 (9.6) n (%) and the Injection site reaction [4] was 1 (1.9) n (%). The Muscle disorders [4] was 2 (3.8) n (%), the “Musculoskeletal and connective tissue disorders” value [4] was 8 (15.4) n (%) and the “Musculoskeletal and connective tissue disorders NEC” value [4] was 2 (3.8) n (%). For the same molecule, the Musculoskeletal pain [4] was 1 (1.9) n (%), the Myalgia [4] was 2 (3.8) n (%) and the muscle spasms [4] was 0 n (%). The Fasting blood glucose [4, 5] was 135 mg/dL, the HbA1c [4, 5] was 6.3% and the Fasting blood glucose [4, 6] was 121 mg/dL and 112 mg/dL (2×) and 70 mg/dL and 183 mg/dL. For the same molecule, the HbA1c [4, 6] was 6.5% and 5.9% (2×) and 6.2% and 7.7%, the “Muscle-related AEs” value [4] was 4% and the “injection related AEs” value [4] was under 2%. The “Muscle-related TEAEs” value ([4]; in vivo) was 2 (4%) patients (%), the “overall percentage of patients who experienced at least one TEAE” value ([4]; in vivo) was 69% and the “patients with abnormalities in vital signs (blood pressure, heart rate)” value ([4]; in vivo) was “no patients”. The “patients with blood glucose >126 mg/dL (7 mmol/L)” value ([4]; in vivo) was 6 patients, the “patients who experienced at least 1 LDL-C value<25 mg/dL” value ([4]; mAb316P 75 mg Q2W) was “Three” and the tolerability and safety ([4]; overall conclusion) was “tolerability and safety comparable with ezetimibe”.
